The labels stand for the following.
B1: PcOxP_DB04_B06 (scFv, V domains shown)
VH: EVQLLESGGGLVQPGGSLRLSCAASGFTFSDAYMEWVRQAPGKGLEWVAASRNKANDYTTEYADSVKGRFTISRDNSKNTLYLQMNSLRAEDTAVYYCARDYYGSSYWYFDVWGQGTLVTVSS
VL: DIQMTQSPSSLSASVGDRVTITCTASESLYSSKHKVHYLAWYQQKPGKAPKLLIYGASNRYIGVPSRFSGSGSGTDFTLTISSLQPEDFATYYCAQFYDYPLTFGGGTKVEIK
notes: scFv in periplasmic extract
B2: PcOxP_DB04_A12 (scFv, V domains shown)
VH: B1 VH with A32G, A55W
VL: B1 VL with I62D, D99S
notes: scFv in periplasmic extract
B3: PcOxP_DB04_D08 (scFv, V domains shown)
VH: B1 VH with A32H
VL: B1 VL with Y61A, D99T
notes: scFv in periplasmic extract
B4: PcOxP_DB03_H09 (scFv, V domains shown)
VH: B1 VH with D57S
VL: B1 VL with Q96E, D99S
notes: scFv in periplasmic extract
B5: PcOxP_DB04_C08 (scFv, V domains shown)
VH: B1 VH with F27E, A32F
VL: B1 VL with K35G, D99Q
notes: scFv in periplasmic extract
B6: PcOxP_DB03_H08 (scFv, V domains shown)
VH: B1 VH with F27G, A32F, D57T
VL: B1 VL with A57S, D99Q
notes: scFv in periplasmic extract
B7: PcOxP_DB04_C03 (scFv, V domains shown)
VH: B1 VH with F29T, A32F, D57S
VL: B1 VL with N59S, R60L, I62S, D99E
notes: scFv in periplasmic extract
B8: PcOxP_DB04_A10 (scFv, V domains shown)
VH: B1 VH with F27D, A32F, A55W
VL: B1 VL with Y61Q, D99S
notes: scFv in periplasmic extract
B9: PcOxP_DB04_A09 (scFv, V domains shown)
VH: B1 VH with A32Y, A55W
VL: B1 VL with S26E, R60L, I62S, D99S
notes: scFv in periplasmic extract
B10: PcOxP_DB04_B08 (scFv, V domains shown)
VH: B1 VH with A32D
VL: B1 VL with A57L, Y98F, D99S
notes: scFv in periplasmic extract
B11: PcOxP_DB03_H07 (scFv, V domains shown)
VH: B1 VH with A32Y
VL: B1 VL with Y61D, A95G, D99S
notes: scFv in periplasmic extract
B12: PcOxP_DB04_A07 (scFv, V domains shown)
VH: B1 VH with F29Q, A32F
VL: B1 VL with A57I, D99S
notes: scFv in periplasmic extract
B13: PcOxP_DB03_G10 (scFv, V domains shown)
VH: B1 VH
VL: B1 VL with Y61Q, D99T
notes: scFv in periplasmic extract
B14: PcOxP_DB04_F05 (scFv, V domains shown)
VH: B1 VH with A32Y
VL: DIVMTQSPDSLAVSLGERATINCTASESLYSSNHKVHYLAWYQQKPGQPPKLLIYGVSNRYIGVPDRFSGSGSGTDFTLTISSLQAEDVAVYYCAQFYSYPLTFGGGTKVEIK
notes: scFv in periplasmic extract
B15: PcOxP_DB04_G01 (scFv, V domains shown)
VH: B1 VH with A32Y, A55W, G104L
VL: B14 VL with T24K, E27Q, L29V, Y30L, N33K, H34N, K35N, H37N, V57A, S99Q
notes: scFv in periplasmic extract
B16: PcOxP_DB04_G08 (scFv, V domains shown)
VH: B1 VH with F29G, A32F
VL: B14 VL with N33K, V57A, I62Q, S99W
notes: scFv in periplasmic extract
B17: PcOxP_DB04_G09 (scFv, V domains shown)
VH: B1 VH with F27N, A32F, A55W
VL: B14 VL with N33K, V57A
notes: scFv in periplasmic extract
B18: PcOxP_DB04_G03 (scFv, V domains shown)
VH: B1 VH with F29T, A32F, V112Y
VL: B14 VL with N33K, V57A, Y61N, Q96H
notes: scFv in periplasmic extract

Residue numbers refer to the chain shown, from its start.

Sequence of BSA (P02769 25-607 limits assumed): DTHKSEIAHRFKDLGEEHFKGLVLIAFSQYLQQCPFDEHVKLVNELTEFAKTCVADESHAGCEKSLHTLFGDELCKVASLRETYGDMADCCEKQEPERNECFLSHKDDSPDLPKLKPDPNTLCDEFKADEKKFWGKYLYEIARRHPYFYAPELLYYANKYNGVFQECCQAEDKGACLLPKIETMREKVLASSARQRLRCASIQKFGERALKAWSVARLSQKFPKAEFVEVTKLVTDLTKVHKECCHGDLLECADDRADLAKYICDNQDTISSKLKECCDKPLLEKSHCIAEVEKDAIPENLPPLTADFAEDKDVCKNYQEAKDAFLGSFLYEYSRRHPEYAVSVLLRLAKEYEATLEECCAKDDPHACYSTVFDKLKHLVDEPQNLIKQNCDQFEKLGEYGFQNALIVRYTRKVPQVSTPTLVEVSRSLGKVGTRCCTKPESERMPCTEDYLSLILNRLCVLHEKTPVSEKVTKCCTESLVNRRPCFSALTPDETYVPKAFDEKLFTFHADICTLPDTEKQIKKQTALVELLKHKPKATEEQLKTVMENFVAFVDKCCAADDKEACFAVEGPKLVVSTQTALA

One assay has as its target T1, Peptide 8: Biotin-AEAAAKEAAAKEAAAKEAAAKAAA-Tyr-acid (N-terminal biotin; C-terminal acid; no PC).
T1 construct: control peptide without PC
T1 peptide: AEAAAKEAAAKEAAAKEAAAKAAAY
Kind of assay: scFv ELISA. The method, boiled down: (§1)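 Bound scFv was read as OD450 after HRP–anti-V5 detection, TMB development and HCl stop. PPE with BSA was incubated 1 h at RT on BSA-blocked wells coated overnight at 4° C. with peptide, or on streptavidin wells loaded 1 h with biotinylated PC-peptides at 1 μg/mL.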
(In general: In an ELISA, binding on a coated surface is turned into a signal by an enzyme label.)
In turn, B1 displayed an OD450 of 0.06 OD450.

In turn, B2 returned an OD450 of 0.06 OD450.

With B3, the OD450 was determined as 0.07 OD450.

Turning to B4, the OD450 amounted to 0.06 OD450.

As for B5, the OD450 was found to be 0.06 OD450.

The molecule B6 had an OD450 of 0.06 OD450.

Regarding B7, the OD450 stood at 0.06 OD450.

Molecule B8 displayed an OD450 of 0.06 OD450.

B9 came in with an OD450 of 0.06 OD450.

B10: the OD450 was 0.05 OD450.

B11 came in with an OD450 of 0.05 OD450.

With B12, the OD450 was determined as 0.05 OD450.

With B13, the OD450 is 0.05 OD450.

The next assay concerns the target T2, Peptide 8: Biotin-AEAAAKEAAAKEAAAKEAAAKAAA-Tyr-acid (N-terminal biotin; C-terminal acid).
T2 construct: Control peptide without PC
T2 peptide: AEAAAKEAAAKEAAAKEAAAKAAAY
Kind of assay: scFv ELISA. The essentials: as §1
Turning to B14, the OD450 is 0.05 OD450.

B15: the OD450 is 0.09 OD450.

B16 returned an OD450 of 0.05 OD450.

The molecule B17 came in with an OD450 of 0.06 OD450.

Molecule B18 showed an OD450 of 0.05 OD450.

The target of the next assay is T3, Peptide 4: Biotin-AGGGGSGGGGSGGGGSAAA-Tyr-acid (N-terminal biotin; C-terminal acid; no PC).
T3 construct: control peptide without PC
T3 peptide: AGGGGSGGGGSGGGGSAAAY
Description: scFv ELISA. The essentials:
as §1
Molecule B1 returned an OD450 of 0.06 OD450.

On to B2, for which the OD450 came to 0.07 OD450.

The molecule B3 returned an OD450 of 0.07 OD450.

Regarding B4, the OD450 is 0.06 OD450.

On to B5, for which the OD450 was 0.05 OD450.

For B6, the OD450 worked out at 0.06 OD450.

Turning to B7, the OD450 is 0.06 OD450.

Regarding B8, the OD450 worked out at 0.06 OD450.

Molecule B9 gave an OD450 of 0.06 OD450.

B10 yielded an OD450 of 0.06 OD450.

For the molecule B11, the OD450 was determined as 0.05 OD450.

With B12, the OD450 was determined as 0.05 OD450.

B13 showed an OD450 of 0.05 OD450.

A further assay addresses T4, Peptide 4: Biotin-AGGGGSGGGGSGGGGSAAA-Tyr-acid (N-terminal biotin; C-terminal acid).
T4 construct: Control peptide without PC
T4 peptide: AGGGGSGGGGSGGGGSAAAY
Kind of assay: scFv ELISA. The essentials: as §1
B14 came in with an OD450 of 0.06 OD450.

B15: the OD450 amounted to 0.07 OD450.

In turn, B16 returned an OD450 of 0.05 OD450.

Turning to B17, the OD450 turned out to be 0.05 OD450.

As to B18, the OD450 was 0.04 OD450.

The target in a further assay is Peptide 1: Biotin-…-[Tyr(PC)]-acid. Kind of assay: scFv ELISA.
Take B14: the OD450 is 0.76 OD450.

Take B1: the OD450 worked out at 0.66 OD450.

B2 had an OD450 of 0.71 OD450.

Take B3: the OD450 was found to be 1.6 OD450.

With B4, the OD450 stood at 0.93 OD450.

Consider B5, for which the OD450 came out at 0.69 OD450.

B15 had an OD450 of 0.63 OD450.

The molecule B16 showed an OD450 of 1.39 OD450.

The molecule B6 showed an OD450 of 0.91 OD450.

In turn, B17 returned an OD450 of 0.48 OD450.

B7 registered an OD450 of 1.34 OD450.

In turn, B8 displayed an OD450 of 0.74 OD450.

B9 came in with an OD450 of 1.16 OD450.

B10 came in with an OD450 of 1.33 OD450.

On to B11, for which the OD450 came out at 1.91 OD450.

Consider B12, for which the OD450 came out at 1.54 OD450.

B13 gave an OD450 of 1.8 OD450.

In turn, B18 gave an OD450 of 0.19 OD450.

In a further assay the target is Peptide 5: Biotin-…-[Tyr(PC)]-acid. Kind of assay: scFv ELISA.
The molecule B14 registered an OD450 of 0.97 OD450.

B1 had an OD450 of 1.06 OD450.

Consider B2, for which the OD450 turned out to be 1.38 OD450.

Regarding B3, the OD450 worked out at 1.96 OD450.

B4: the OD450 is 1.25 OD450.

As for B5, the OD450 was found to be 1.07 OD450.

For the molecule B15, the OD450 amounted to 1.39 OD450.

On to B16, for which the OD450 came to 1.67 OD450.

Turning to B6, the OD450 was 1.18 OD450.

As for B17, the OD450 is 1.08 OD450.

Take B7: the OD450 was 1.87 OD450.

Molecule B8 came in with an OD450 of 1.61 OD450.

Molecule B9 returned an OD450 of 1.96 OD450.

B10 yielded an OD450 of 1.56 OD450.

For B11, the OD450 amounted to 1.64 OD450.

Molecule B12 showed an OD450 of 2.11 OD450.

B13 showed an OD450 of 1.21 OD450.

The molecule B18 yielded an OD450 of 0.4 OD450.

Another assay addresses BSA (UniProt P02769). Description: scFv ELISA.
B14 came in with an OD450 of 0.07 OD450.

B1 returned an OD450 of 0.1 OD450.

Molecule B2 registered an OD450 of 0.12 OD450.

Regarding B3, the OD450 is 0.12 OD450.

In turn, B4 gave an OD450 of 0.11 OD450.

For B5, the OD450 was 0.08 OD450.

With B15, the OD450 is 0.09 OD450.

With B16, the OD450 came out at 0.07 OD450.

The molecule B6 gave an OD450 of 0.12 OD450.

B17 returned an OD450 of 0.08 OD450.

Molecule B7 returned an OD450 of 0.1 OD450.

With B8, the OD450 is 0.11 OD450.

In turn, B9 displayed an OD450 of 0.12 OD450.

B10 had an OD450 of 0.11 OD450.

B11 yielded an OD450 of 0.08 OD450.

B12 displayed an OD450 of 0.09 OD450.

B13 registered an OD450 of 0.11 OD450.

Molecule B18 came in with an OD450 of 0.07 OD450.
